# Results as given in US20230234997A1, “Compositions and Methods for the Treatment of Synucleinopathies” (SOLA BIOSCIENCES LLC, priority 2020, published 2023).
# Residues, ends and D or L forms follow the SMILES beside them. *: point of attachment. Cbz = O=C(OCc1ccccc1)*
# Experiments:
# Format in all cases: cell-based
# [1] = molecular target: T1, mutant (A53T) α-synuclein (Homo sapiens, UniProt P37840, A53T); assay: ELISA of aggregated α-synuclein (Syn-O4 capture) in lysates of transfected HEK293 cells
# T1 construct: expressed in transfected cells; host or cells: HEK293
# Experimental: Cells were also treated with either Bafilomycin A1, an inhibitor of late phase autophagy (10 nM and 100 nM), or MG132, a proteasome inhibitor (0.1 μM and 1 μM). Aggregated synuclein in cell lysates were determined by ELISA using an anti-aggregated synuclein antibody.
# Expression vector plasmids encoding various protein constructs were transfected into HEK293 cells with Lipofectamine 3000 transfection reagent (Thermo Fisher Scientific). One day after transfection, culture medium was replaced with fresh medium containing bafilomycin al (BFA) or MG132, and cells were incubated for additional 48 hours. Cells were lysed in lysis buffer (20 mM Tris, pH 7.4, 150 mM NaCl, 1 mM EDTA, 0.1% NP-40) supplemented with protease inhibitor cocktail (Complete Protease Inhibitor Cocktail; Sigma) and 2 mM PMSF. After brief sonication, cell lysates were analyzed in ELISA or immunoblotting assay.
# The aggregation status of expressed α-synuclein was monitored with α-synuclein aggregate-specific antibody Syn-O4 (BioLegend). Syn-O4 is a conformation-specific monoclonal antibody that recognizes specifically α-synuclein aggregates but not the soluble, monomeric form of the protein^58. Microtiter plate wells were coated with Syn-O4 overnight at 4° C., and after coating, the wells were washed three times with PBS, blocked for one hour with PBS containing 1% BSA, and washed again with PBS. […]
# [2] = molecular target: T1, mutant (A53T) α-synuclein; assay: Immunoblot of total α-synuclein in lysates of transfected HEK293 cells
# Experimental: (§1) FIG. 3A: Wild type (WT) α-synuclein (Syn(WT): bars 1-3) or mutant α-synuclein (Syn(A53T): bars 4-6) was expressed alone or with a Flag epitope-tagged fusion protein comprising the J-domain DnaJB1 and a α-synuclein-binding domain (J-SynBP1: bars 2 and 5) or a control fusion protein construct comprising a mutated J-domain (containing a P33Q substitution) and a α-synuclein-binding peptide (J(MT)-SynBP1: bars 3 and 6) in HEK293 cells. Two days later, cells were homogenized in Tris buffer (10 mM Tris, pH7.4, 140 mM NaCl, 1 mM EDTA supplemented with protease inhibitor cocktail). Aggregation of mutant α-synuclein levels were quantified with sandwich ELISA, in which aggregated α-synuclein proteins were captured by coated-Syn-O4 antibody, followed by detection with HRP-conjugated anti-α-synuclein antibody (BioLegend: A15115A). FIG. 3B Lysates were prepared from HEK293 cells transiently transfected with wildtype Syn(WT) (lanes 1-3) or mutant Syn(A53T) (lane 4-6) alone or co-expressed with the fusion protein constructs. After brief sonication, the cell lysate was subjected to SDS-PAGE/immuno blotting with anti-α-synuclein antibody (Ab-2: top panel), Flag antibody (middle panel) or anti-Tubulin antibody (bottom panel).
# Cells were transfected with either wildtype (lane 2) or mutant (lanes 3-8) α-synuclein, and also transfected with the JB1-SynBP1 fusion protein (lanes 4-8). […]
# (§2) Expression vector plasmids encoding various protein constructs were transfected into HEK293 cells with Lipofectamine 3000 transfection reagent (Thermo Fisher Scientific). Cell lysates were analyzed for expressed proteins using immunoblot assays. […] After brief sonication, the samples were analyzed for expressed proteins using immunoblot assays. […]
# (§3) Expressed proteins were detected using a chemiluminescent signal. […]
# Expression vector plasmids encoding various protein constructs were transfected into HEK293 cells with Lipofectamine 3000 transfection reagent (Thermo Fisher Scientific). […] After brief sonication, cell lysates were analyzed in ELISA or immunoblotting assay.
# wildtype α-synuclein [3] = molecular target: T2, wildtype α-synuclein (Homo sapiens, UniProt P37840); assay: ELISA of aggregated α-synuclein (Syn-O4 capture) in lysates of transfected HEK293 cells; conditions: co-expression with wildtype α-synuclein, ELISA on cell lysates, bars 1-3
# T2 construct: expressed in transfected cells; host or cells: HEK293
# Experimental: as §1, with “FIG. 3B Lysates were prepared from HEK293 cells transiently transfected with wildtype Syn(WT) (lanes 1-3) or mutant Syn(A53T) (lane 4-6) alone or co-expressed with the fusion protein constructs. After brief sonication, the cell lysate was subjected to SDS-PAGE/immuno blotting with anti-α-synuclein antibody (Ab-2: top panel), Flag antibody (middle panel) or anti-Tubulin antibody (bottom panel).” left out
# as §2
# The aggregation status of expressed α-synuclein was monitored with α-synuclein aggregate-specific antibody Syn-O4 (BioLegend). […]
# wildtype α-synuclein [4] = molecular target: T2, wildtype α-synuclein; assay: Immunoblot of total α-synuclein in lysates of transfected HEK293 cells; conditions: wildtype Syn(WT), lanes 1-3
# Experimental: as §1, with “FIG. 3B Lysates were prepared from HEK293 cells transiently transfected with wildtype Syn(WT) (lanes 1-3) or mutant Syn(A53T) (lane 4-6) alone or co-expressed with the fusion protein constructs. After brief sonication, the cell lysate was subjected to SDS-PAGE/immuno blotting with anti-α-synuclein antibody (Ab-2: top panel), Flag antibody (middle panel) or anti-Tubulin antibody (bottom panel).” left out
# as §2, §3
# [5] = molecular target: T3, mutant (A53T) α-synuclein phosphorylated at Ser129 (Homo sapiens, UniProt P37840, A53T); assay: Level of phosphorylated α-synuclein (Ser129) on co-expression of fusion protein constructs; conditions: Table 13, wildtype alone = 100%, mutant alone = 92.1%
# T3 construct: expressed in transfected cells
# [6] = HEK293, BFA at either 10 nM or 100 nM
# [7] = HEK293, MG132 (0.1 μM and 1 μM)
compound,measurement,setting,value
"CO/C1=C\C(C)=C\[C@@H](C)[C@@H](O)[C@@H](C)C/C(C)=C/C=C/[C@H](OC)[C@@H]([C@@H](C)[C@@H](O)[C@H](C)[C@@]2(O)C[C@@H](O)[C@H](C)[C@@H](C(C)C)O2)OC1=O [BFA, Bafilomycin A1, reference compound]",effect of inhibitor on aggregated α-synuclein in cells expressing mutant α-synuclein and construct 1,[1]; [6],restoration of total and aggregated α-synuclein to levels matching cells expressing mutant α-synuclein alone
same,effect of inhibitor on total α-synuclein in cells expressing mutant α-synuclein and construct 1,[2]; [6],restoration of total and aggregated α-synuclein to levels matching cells expressing mutant α-synuclein alone
"CC(C)C[C@@H](C=O)NC(=O)[C@H](CC(C)C)NC(=O)[C@H](CC(C)C)NC(=O)OCc1ccccc1 [MG132, reference compound] (Cbz-Leu-Leu-Leu-aldehyde)",effect of inhibitor on aggregated level of α-synuclein in cells expressing mutant α-synuclein and construct 1,[1]; [7],little effect
same,effect of inhibitor on total level of α-synuclein in cells expressing mutant α-synuclein and construct 1,[2]; [7],little effect
"Construct 2: Same as construct 1, but containing a P33Q mutation within the J domain (control)",amount of detectable aggregated α-synuclein (FIG. 3A),wildtype α-synuclein [3],higher overall aggregation
same,"overall level of α-synuclein (FIG. 3B, Western blot)",wildtype α-synuclein [4],relatively similar levels
same,"overall level of α-synuclein (FIG. 3B, Western blot)","[2]; HEK293 cells, mutant Syn(A53T), lanes 4-6",relatively similar levels
"Construct 10: J domain from human DnaJB1 fused to 4XGGGGS linker, in turn, fused on its C-terminus to QBP1",ability to reduce mutant (A53T) synuclein aggregation (Table 11),[1]; Mutant (A53T),potently reduce α-synuclein aggregation
Construct 11: J domain from human DnaJB1 fused on its C-terminus to SynBP1 (with flexible GGGGS linker),Phosphorylated α-synuclein,[5],19.1%
Construct 12: J domain from human DnaJB1 fused on its C-terminus to SynBP1 (with rigid EAAAK linker),Phosphorylated α-synuclein,[5],23.1%
Construct 13: J domain from human DnaJB1 fused on its C-terminus to SynBP1 (no linker),Phosphorylated α-synuclein,[5],4.5%
